{"source": "patent US20130287781A1", "about": "(GlaxoSmithKline, published 2013)", "binders": {"B1": {"name": "H6L13 variant with VH CDR3 IQGY (antibody, human IgG1, kappa, V domains shown)", "VH": "QVQLVQSGAEVKKPGASVKVSCKASGYTFTSYWMHWVRQAPGQGLEWIGNINPSNGGTNYNEKFKSRATMTRDTSTSTAYMELSSLRSEDTAVYYCELIQGYWGQGTLVTVSS", "VL": "DIVMTQSPLSLPVTLGQPASISCRSSKSLLYKDGKTYLNWFQQRPGQSPQLLIYLMSTRASGVPDRFSGGGSGTDFTLKISRVEAEDVGVYYCQQLVEYPLTFGQGTKLEIKR", "notes": "Single point variant of H6FL with L13FL"}, "B2": {"name": "H6L13 variant with VH CDR3 GVGY (antibody, human IgG1, kappa, V domains shown)", "VH": "B1 VH with I99G, Q100V", "VL": "B1 VL", "notes": "as for B1"}, "B3": {"name": "H6L13 variant with VH CDR3 GQWY (antibody, human IgG1, kappa, V domains shown)", "VH": "B1 VH with I99G, G101W", "VL": "B1 VL", "notes": "as for B1"}, "B4": {"name": "H6L13 variant with VH CDR3 GQYY (antibody, human IgG1, kappa, V domains shown)", "VH": "B1 VH with I99G, G101Y", "VL": "B1 VL", "notes": "as for B1"}, "B5": {"name": "H6L13 variant with VH CDR3 RQGY (antibody, human IgG1, kappa, V domains shown)", "VH": "B1 VH with I99R", "VL": "B1 VL", "notes": "as for B1"}, "B6": {"name": "H6L13 variant with VH CDR3 GQFY (antibody, human IgG1, kappa, V domains shown)", "VH": "B1 VH with I99G, G101F", "VL": "B1 VL", "notes": "as for B1"}, "B7": {"name": "H6L13 variant with VH CDR3 GQSY (antibody, human IgG1, kappa, V domains shown)", "VH": "B1 VH with I99G, G101S", "VL": "B1 VL", "notes": "as for B1"}, "B8": {"name": "H6L13 variant with VH CDR3 GIGY (antibody, human IgG1, kappa, V domains shown)", "VH": "B1 VH with I99G, Q100I", "VL": "B1 VL", "notes": "as for B1"}, "B9": {"name": "H6L13 variant with VH CDR3 GLGY (antibody, human IgG1, kappa, V domains shown)", "VH": "B1 VH with I99G, Q100L", "VL": "B1 VL", "notes": "as for B1"}, "B10": {"name": "H16L16 (antibody, human IgG1, kappa, V domains shown)", "VH": "B1 VH with R38K, A40R, R67K, M70L, R72V, T74K, I99G", "VL": "B1 VL with L11N, A19V, Q42L", "notes": "IgG1 (L235A, G237A) / kappa; CAMPATH-1H signal (1-19) left out"}, "B11": {"name": "H28L13 (antibody, human IgG1, kappa, V domains shown)", "VH": "B1 VH with R67K, I99M", "VL": "B1 VL", "notes": "IgG1 (L235A, G237A) / kappa; CAMPATH-1H signal (1-19) left out; also called H28FL L13FL"}, "B12": {"name": "H6L13 variant with VH CDR3 GQLY (antibody, human IgG1, kappa, V domains shown)", "VH": "B1 VH with I99G, G101L", "VL": "B1 VL", "notes": "as for B1"}, "B13": {"name": "H6L13 variant with VH CDR3 GAGY (antibody, human IgG1, kappa, V domains shown)", "VH": "B1 VH with I99G, Q100A", "VL": "B1 VL", "notes": "as for B1"}, "B14": {"name": "H27L13 (antibody, human IgG1, kappa, V domains shown)", "VH": "B1 VH with R38K, A40R, R67K, M70L, R72V, T74K, I99M", "VL": "B1 VL", "notes": "as for B10"}}, "key": {"GST-human NOGO-A56 [1]": {"target": "T1, GST-human NOGO-A56 (human)", "T1 construct": "Expressed in E. coli BL21 from pGEX-6P1 and purified on glutathione-sepharose; the GST tag is part of the protein in the assays; also called GST-Nogo-A 5+6; GST Nogo-A 5 + 6", "T1 sequence (chain, as listed by the source limits assumed)": "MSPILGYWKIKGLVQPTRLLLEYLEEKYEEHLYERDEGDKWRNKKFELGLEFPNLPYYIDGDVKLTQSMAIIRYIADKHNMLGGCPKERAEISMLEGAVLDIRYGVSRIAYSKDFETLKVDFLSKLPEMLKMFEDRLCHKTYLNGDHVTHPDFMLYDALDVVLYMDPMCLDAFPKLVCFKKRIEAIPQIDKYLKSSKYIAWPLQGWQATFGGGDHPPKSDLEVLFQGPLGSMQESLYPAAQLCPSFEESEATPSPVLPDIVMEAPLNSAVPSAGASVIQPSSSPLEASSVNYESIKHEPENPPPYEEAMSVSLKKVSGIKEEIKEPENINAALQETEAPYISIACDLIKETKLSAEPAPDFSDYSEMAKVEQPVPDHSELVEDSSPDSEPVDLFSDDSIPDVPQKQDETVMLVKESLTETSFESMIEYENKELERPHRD", "assay": "SPR (Biacore) off-rate on NOGO chip, panel of H6FL CDR H3 variants with L13FL"}, "GST-human NOGO-A56 [2]": {"target": "T1, GST-human NOGO-A56", "assay": "SPR (Biacore), GST-human NOGO-A56 amine-coupled to CM5, antibody flowed over, 25 C", "procedure": "(§1) GST-human NOGO-A56 was immobilised to a CM5 chip by primary amine coupling using the Biacore Wizard program designed for targeted immobilisation levels. The CM5 sensor surface was activated by passing a solution of 50 mM N-hydroxy-succinimide (NHS) and 200 mM N-ethyl-N′-dimethylaminopropyl carbonide (EDC). Then GST-human NOGO-A56 in sodium acetate buffer, pH5.0 or pH 4.5, was passed over the chip and immobilised. After immobilisation was complete any still activated esters were blocked by an injection of 1M ethanolamine hydrochloride, pH8.5.\n(§2) The anti-NOGO mAbs were diluted down in HBS-EP (10 mM HEPES, pH 7.4, 150 mM NaCl, 3 mM EDTA, and 0.005% P-20 surfactant) for the BIAcore 3000 or HBS-EP+ (10 mM HEPES, pH 7.4, 150 mM NaCl, 3 mM EDTA, and 0.05% P-20 surfactant) in the case of the T100 and binding studies were carried out at range of defined antibody concentrations. All runs were referenced against a blanked sensor surface (one that had been activated and blocked as described earlier but had no addition of ligand). Analysis of binding was carried out using the BIAevaluation kinetic analysis software version 4.1 for the BIAcore 3000 and T100 kinetic analysis software version 1.0. […] Unless otherwise stated, the BIAcore experiments were performed at 25° C."}, "GST-human NOGO-A56 [3]": {"target": "T1, GST-human NOGO-A56", "assay": "SPR (Biacore), GST-human NOGO-A56 amine-coupled to CM5, antibody flowed over, 37 C", "procedure": "as §1, §2"}, "GST-human NOGO-A56 [4]": {"target": "T1, GST-human NOGO-A56", "assay": "direct ELISA, GST-human NOGO-A56 coated at 1.0 mcg/ml, purified antibody, OD490", "procedure": "(§3) Wells were rinsed once with TBS+0.05% Tween (TBST) then incubated with 2% BSA in TBST to block non-specific binding sites at room temperature for 1 hour. Antibodies were diluted in TBST+2% BSA to 10 μg/ml and ½ dilutions made from this. Antibodies were added to wells in duplicate and incubated at room temperature for 1 hour. […] The wells were washed three times with TBST and then incubated with 100 μl OPD peroxidase substrate (Sigma) per well for 10 minutes. The colour reaction was stopped by the addition of 25 μl concentrated H₂SO₄. Optical density at 490 nm was measured using a plate reader. Background values read from wells with no antibody were subtracted."}, "GST-human NOGO-A56 [5]": {"target": "T1, GST-human NOGO-A56", "assay": "direct ELISA, GST-human NOGO-A56 coated at 1.0 mcg/ml, purified antibody, OD490", "remark": "listed apart in the source"}, "GST-human NOGO-A56 [6]": {"target": "T1, GST-human NOGO-A56", "assay": "SPR (Biacore T100), reverse format: antibody captured by Protein A, GST Nogo-A 5+6 0.125-8 nM flowed over; mean (SD in brackets)", "source_text": "Protein A was immobilised to approximately 4000RUs by primary amine and used to capture 200-300RUs of the sample antibodies. […] The values show the mean and standard deviation (in brackets) of three independent runs in duplicate. Each data set was independently analysed prior to the calculation of the mean and standard deviation."}, "GST-human NOGO-A56 [7]": {"target": "T1, GST-human NOGO-A56", "assay": "SPR (Biacore), GST-human NOGO-A56 amine-coupled to CM5, antibody flowed over, 25 C", "remark": "listed apart in the source", "procedure": "as §1, §2"}, "GST-human NOGO-A56 [8]": {"target": "T1, GST-human NOGO-A56", "assay": "SPR (Biacore T100), antigen amine-coupled to CM5, antibody 0.125-8 nM; mean of six runs in duplicate (SD in brackets)", "source_text": "In the first approach, the recombinant Nogo-A was coupled to the surface of the chip and anti-Nogo-A antibodies passed over this surface. In the second approach, Protein A was used to capture the antibody onto the surface of the chip over which the recombinant GST-human Nogo-A56 was passed.\nThe antigen was bound to the CM5 chip by primary amine coupling. […] The values show the mean and standard deviation (in brackets) of six independent runs carried out in duplicate. Each completed data set was analysed independently prior to the calculation of mean and standard deviation."}, "GST-human NOGO-A56 [9]": {"target": "T1, GST-human NOGO-A56", "assay": "SPR (Biacore), GST-human NOGO-A56 amine-coupled to CM5, antibody flowed over, 25 C", "remark": "listed apart in the source", "procedure": "as §1, §2"}, "GST-human NOGO-A56 [10]": {"target": "T1, GST-human NOGO-A56", "assay": "reverse format ELISA: antibody captured on anti-human IgG, GST-Nogo-A 5+6 detected with anti-GST-HRP; the x axis is the antibody concentration"}, "GST-human NOGO-A56 [11]": {"target": "T1, GST-human NOGO-A56", "assay": "competition ELISA on coated GST-Nogo-A 5+6; competitor 2A10 pre-mixed, bound 2A10 detected with anti-mouse IgG-HRP"}, "GST-human NOGO-A56 [12]": {"target": "T1, GST-human NOGO-A56", "assay": "direct ELISA, GST-Nogo-A 5+6 coated at 1.0 mcg/ml, anti-human IgG-HRP, Abs490", "procedure": "as §3"}}, "note": "Changes are numbered by the printed parent chain. Numbers in names are those of the source.", "data": [{"binder": "B1", "values": [{"measurement": "koff", "setting": "GST-human NOGO-A56 [1]", "value": 0.0172, "unit": "s⁻¹"}]}, {"binder": "B2", "values": [{"measurement": "koff", "setting": "GST-human NOGO-A56 [1]", "value": 0.0178, "unit": "s⁻¹"}]}, {"binder": "B3", "values": [{"measurement": "koff", "setting": "GST-human NOGO-A56 [1]", "value": 0.0177, "unit": "s⁻¹"}]}, {"binder": "B4", "values": [{"measurement": "koff", "setting": "GST-human NOGO-A56 [1]", "value": 0.0328, "unit": "s⁻¹"}]}, {"binder": "B5", "values": [{"measurement": "koff", "setting": "GST-human NOGO-A56 [1]", "value": 0.0175, "unit": "s⁻¹"}]}, {"binder": "B6", "values": [{"measurement": "koff", "setting": "GST-human NOGO-A56 [1]", "value": 0.0335, "unit": "s⁻¹"}]}, {"binder": "B7", "values": [{"measurement": "koff", "setting": "GST-human NOGO-A56 [1]", "value": 0.0186, "unit": "s⁻¹"}]}, {"binder": "B8", "values": [{"measurement": "koff", "setting": "GST-human NOGO-A56 [1]", "value": 0.0257, "unit": "s⁻¹"}]}, {"binder": "B9", "values": [{"measurement": "koff", "setting": "GST-human NOGO-A56 [1]", "value": 0.019, "unit": "s⁻¹"}]}, {"binder": "B10", "values": [{"measurement": "Kd", "setting": "GST-human NOGO-A56 [2]", "value": 1.08, "unit": "nM"}, {"measurement": "koff", "setting": "GST-human NOGO-A56 [2]", "value": 0.00372, "unit": "s⁻¹"}, {"measurement": "kon", "setting": "GST-human NOGO-A56 [2]", "value": "3.43e+06", "unit": "M⁻¹ s⁻¹"}, {"measurement": "Kd", "setting": "GST-human NOGO-A56 [3]", "value": 1.16, "unit": "nM"}, {"measurement": "koff", "setting": "GST-human NOGO-A56 [3]", "value": 0.00616, "unit": "s⁻¹"}, {"measurement": "kon", "setting": "GST-human NOGO-A56 [3]", "value": "5.31e+06", "unit": "M⁻¹ s⁻¹"}, {"measurement": "EC50 (read off the curve)", "setting": "GST-human NOGO-A56 [4]", "value": "~0.08", "unit": "µg/mL"}]}, {"binder": "B11", "values": [{"measurement": "Kd", "setting": "GST-human NOGO-A56 [2]", "value": 0.936, "unit": "nM"}, {"measurement": "koff", "setting": "GST-human NOGO-A56 [2]", "value": 0.00389, "unit": "s⁻¹"}, {"measurement": "kon", "setting": "GST-human NOGO-A56 [2]", "value": "4.16e+06", "unit": "M⁻¹ s⁻¹"}, {"measurement": "EC50 (read off the curve)", "setting": "GST-human NOGO-A56 [5]", "value": "~0.08", "unit": "µg/mL"}, {"measurement": "Kd", "setting": "GST-human NOGO-A56 [6]", "value": 0.34, "unit": "nM"}, {"measurement": "Kd", "setting": "GST-human NOGO-A56 [3]", "value": 1.02, "unit": "nM"}, {"measurement": "koff", "setting": "GST-human NOGO-A56 [3]", "value": 0.00759, "unit": "s⁻¹"}, {"measurement": "kon", "setting": "GST-human NOGO-A56 [3]", "value": "7.43e+06", "unit": "M⁻¹ s⁻¹"}, {"measurement": "Kd", "setting": "GST-human NOGO-A56 [7]", "value": 0.45, "unit": "nM"}, {"measurement": "koff", "setting": "GST-human NOGO-A56 [7]", "value": 0.00317, "unit": "s⁻¹"}, {"measurement": "kon", "setting": "GST-human NOGO-A56 [7]", "value": "6.97e+06", "unit": "M⁻¹ s⁻¹"}, {"measurement": "Kd", "setting": "GST-human NOGO-A56 [8]", "value": 1.11, "unit": "nM"}, {"measurement": "Kd", "setting": "GST-human NOGO-A56 [9]", "value": 0.454, "unit": "nM"}, {"measurement": "koff", "setting": "GST-human NOGO-A56 [9]", "value": 0.0033, "unit": "s⁻¹"}, {"measurement": "kon", "setting": "GST-human NOGO-A56 [9]", "value": "7.26e+06", "unit": "M⁻¹ s⁻¹"}, {"measurement": "EC50 (read off the curve)", "setting": "GST-human NOGO-A56 [10]", "value": "~0.06", "unit": "µg/mL"}, {"measurement": "EC50 (read off the curve)", "setting": "GST-human NOGO-A56 [4]", "value": "~0.07", "unit": "µg/mL"}, {"measurement": "IC50 (read off the curve)", "setting": "GST-human NOGO-A56 [11]", "value": "~5", "unit": "µg/mL"}, {"measurement": "EC50 (read off the curve)", "setting": "GST-human NOGO-A56 [12]", "value": "~0.03", "unit": "µg/mL"}]}, {"binder": "B12", "values": [{"measurement": "koff", "setting": "GST-human NOGO-A56 [1]", "value": 0.0132, "unit": "s⁻¹"}]}, {"binder": "B13", "values": [{"measurement": "koff", "setting": "GST-human NOGO-A56 [1]", "value": 0.0315, "unit": "s⁻¹"}]}, {"binder": "B14", "values": [{"measurement": "Kd", "setting": "GST-human NOGO-A56 [2]", "value": 0.606, "unit": "nM"}, {"measurement": "koff", "setting": "GST-human NOGO-A56 [2]", "value": 0.00213, "unit": "s⁻¹"}, {"measurement": "kon", "setting": "GST-human NOGO-A56 [2]", "value": "3.5e+06", "unit": "M⁻¹ s⁻¹"}, {"measurement": "Kd", "setting": "GST-human NOGO-A56 [3]", "value": 0.641, "unit": "nM"}, {"measurement": "koff", "setting": "GST-human NOGO-A56 [3]", "value": 0.00422, "unit": "s⁻¹"}, {"measurement": "kon", "setting": "GST-human NOGO-A56 [3]", "value": "6.58e+06", "unit": "M⁻¹ s⁻¹"}, {"measurement": "Kd", "setting": "GST-human NOGO-A56 [7]", "value": 0.28, "unit": "nM"}, {"measurement": "koff", "setting": "GST-human NOGO-A56 [7]", "value": 0.00183, "unit": "s⁻¹"}, {"measurement": "kon", "setting": "GST-human NOGO-A56 [7]", "value": "6.58e+06", "unit": "M⁻¹ s⁻¹"}, {"measurement": "Kd", "setting": "GST-human NOGO-A56 [9]", "value": 0.291, "unit": "nM"}, {"measurement": "koff", "setting": "GST-human NOGO-A56 [9]", "value": 0.0018, "unit": "s⁻¹"}, {"measurement": "kon", "setting": "GST-human NOGO-A56 [9]", "value": "6.2e+06", "unit": "M⁻¹ s⁻¹"}, {"measurement": "EC50 (read off the curve)", "setting": "GST-human NOGO-A56 [4]", "value": "~0.08", "unit": "µg/mL"}]}]}
